# Biological target: assembled microtubules
# Experiment: co-sedimentation
row,Substance,percent of wildtype Eg5 recovered in the microtubule pellet [%]
1,His6-Eg5[Thr926Ala] (baculovirus) (from UniProt P52732 1-1056) (natural protein),28
2,His6-Eg5[Ser1033Asp] (baculovirus) (from UniProt P52732 1-1056) (natural protein),42

# From publication PMC4066659
